This data set concerns the molecule itself. The experiment in a line: SEC; gel filtration on a 24 ml Superdex 200 HR 10/30 column calibrated with γ-globulin (158 kDa), ovalbumin (44 kDa) and myoglobin (17 kDa); monomer and dimer.

B1: catalytic domain of human B4GalT1 (Asp99-Ser398), wild type (domain or fragment, UniProt P15291 99-398, looked up)
chain: DSSPVVDSGPGPASNLTSVPVPHTTALSLPACPEESPLLVGPMLIEFNMPVDLELVAKQNPNVKMGGRYAPRDCVSPHKVAIIIPFRNRQEHLKYWLYYLHPVLQRQQLDYGIYVINQAGDTIFNRAKLLNVGFQEALKDYDYTCFVFSDVDLIPMNDHNAYRCFSQPRHISVAMDKFGFSLPYVQYFGGVSALSKQQFLTINGFPNNYWGWGGEDDDIFNRLVFRGMSISRPNAVVGRCRMIRHSRDKKNEPNPQRFDRIAHTKETMLSDGLNSLTYQVLDVQRYPLYTQITVDIGTPS
notes: EC 2.4.1.38), human, residues Asp99-Ser398: a piece of the stem domain (Asp99-Leu125) and the catalytic domain (Ser126-Ser398); the construct's calculated molecular weight is printed as 36.35 kDa; The tag is surmised from the nickel purification; In equilibrium between monomer and dimer; also called Beta-1,4-galactosyltransferase 1; recombinant B4GalT1; source: E. coli BL21(DE3) with the CyDisCo …
With B1, the “stoichiometry N” value was found to be 2.

Values taken from publication PMC6198961, “The dimeric structure of wild-type human glycosyltransferase B4GalT1” (PLoS ONE, 2018).
